Where a chain is given by its changes, count along the chain named. Names and notes keep the numbering of the source.
B1: Fab VH1-46_IGHD6-6*01_IGHJ1*01 S102A/S103P/S104F/H111F (APFF) & L6_IGKJ1*01 S28T (Fab, V domains shown)
VH: QVQLVQSGAEVKKPGASVKVSCKASGYTFTSYYMHWVRQAPGQGLEWMGIINPSGGSTSYAQKFQGRVTMTRDTSTSTVYMELSSLRSEDTAVYYCAREEYAPFSAEYFQFWGQGTLVTVSS
VL: EIVLTQSPATLSLSPGERATLSCRASQTVSSYLAWYQQKPGQAPRLLIYDASNRATGIPARFSGSGSGTDFTLTISSLEPEDFAVYYCQQRSNWPPWTFGQGTKVEIKR
notes: Fab expressed in E. coli: VH joined to CH1 (Plasmid A, His6 and Flag tags), VL joined to kappa CL (Plasmid C); also called APFF S28T
B2: Fab VH1-46_IGHD6-6*01_IGHJ1*01 S102A/S103P/S104F/H111F (APFF) & L6_IGKJ1*01 S28I (Fab, V domains shown)
VH: B1 VH
VL: B1 VL with T28I
notes: Fab expressed in E. coli: VH joined to CH1 (Plasmid A, His6 and Flag tags), VL joined to kappa CL (Plasmid C); also called APFF S28I
B3: Fab VH1-46_IGHD6-6*01_IGHJ1*01 S102A/S103P/S104F/H111F (APFF) & L6_IGKJ1*01 S28A (Fab, V domains shown)
VH: B1 VH
VL: B1 VL with T28A
notes: Fab expressed in E. coli: VH joined to CH1 (Plasmid A, His6 and Flag tags), VL joined to kappa CL (Plasmid C); also called APFF S28A
B4: Fab VH1-46_IGHD6-6*01_IGHJ1*01 S102A/S103P/S104F/H111F (APFF) & L6_IGKJ1*01 S28H (Fab, V domains shown)
VH: B1 VH
VL: B1 VL with T28H
notes: Fab expressed in E. coli: VH joined to CH1 (Plasmid A, His6 and Flag tags), VL joined to kappa CL (Plasmid C); also called APFF S28H
B5: Fab VH1-46_IGHD6-6*01_IGHJ1*01 S102A/S103P/S104F/H111F (APFF) & L6_IGKJ1*01 S28N (Fab, V domains shown)
VH: B1 VH
VL: B1 VL with T28N
notes: Fab expressed in E. coli: VH joined to CH1 (Plasmid A, His6 and Flag tags), VL joined to kappa CL (Plasmid C); also called APFF S28N
B6: Fab VH1-46_IGHD6-6*01_IGHJ1*01 S102A/S103P/S104F/H111F (APFF) & L6_IGKJ1*01 S28W (Fab, V domains shown)
VH: B1 VH
VL: B1 VL with T28W
notes: Fab expressed in E. coli: VH joined to CH1 (Plasmid A, His6 and Flag tags), VL joined to kappa CL (Plasmid C); also called APFF S28W
B7: Fab VH1-46_IGHD6-6*01_IGHJ1*01 S102A/S103P/S104F/H111F (APFF) & L6_IGKJ1*01 S28R (Fab, V domains shown)
VH: B1 VH
VL: B1 VL with T28R
notes: Fab expressed in E. coli: VH joined to CH1 (Plasmid A, His6 and Flag tags), VL joined to kappa CL (Plasmid C); also called APFF S28R
B8: Fab VH1-46_IGHD6-6*01_IGHJ1*01 S102A/S103P/S104F/H111F (APFF) & L6_IGKJ1*01 S28L (Fab, V domains shown)
VH: B1 VH
VL: B1 VL with T28L
notes: Fab expressed in E. coli: VH joined to CH1 (Plasmid A, His6 and Flag tags), VL joined to kappa CL (Plasmid C); also called APFF S28L
B9: Fab VH1-46_IGHD6-6*01_IGHJ1*01 S102A/S103P/S104F/H111F (APFF) & L6_IGKJ1*01 S28E (Fab, V domains shown)
VH: B1 VH
VL: B1 VL with T28E
notes: Fab expressed in E. coli: VH joined to CH1 (Plasmid A, His6 and Flag tags), VL joined to kappa CL (Plasmid C); also called APFF S28E
B10: Fab VH1-46_IGHD6-6*01_IGHJ1*01 S102A/S103P/S104F/H111F (APFF) & L6_IGKJ1*01 S28M (Fab, V domains shown)
VH: B1 VH
VL: B1 VL with T28M
notes: Fab expressed in E. coli: VH joined to CH1 (Plasmid A, His6 and Flag tags), VL joined to kappa CL (Plasmid C); also called APFF S28M
B11: Fab VH1-46_IGHD6-6*01_IGHJ1*01 S102A/S103P/S104F/H111F (APFF) & L6_IGKJ1*01 S28Q (Fab, V domains shown)
VH: B1 VH
VL: B1 VL with T28Q
notes: Fab expressed in E. coli: VH joined to CH1 (Plasmid A, His6 and Flag tags), VL joined to kappa CL (Plasmid C); also called APFF S28Q
B12: Fab VH1-46_IGHD6-6*01_IGHJ1*01 S102A/S103P/S104F/H111F (APFF) & L6_IGKJ1*01 S30A (Fab, V domains shown)
VH: B1 VH
VL: B1 VL with T28S, S30A
notes: Fab expressed in E. coli: VH joined to CH1 (Plasmid A, His6 and Flag tags), VL joined to kappa CL (Plasmid C); also called APFF S30A
B13: Fab VH1-46_IGHD6-6*01_IGHJ1*01 S102A/S103P/S104F/H111F (APFF) & L6_IGKJ1*01 S28P (Fab, V domains shown)
VH: B1 VH
VL: B1 VL with T28P
notes: Fab expressed in E. coli: VH joined to CH1 (Plasmid A, His6 and Flag tags), VL joined to kappa CL (Plasmid C); also called APFF S28P
B14: Fab VH1-46_IGHD6-6*01_IGHJ1*01 S102A/S103P/S104F/H111F G56H & L6_IGKJ1*01 (Fab, V domains shown)
VH: B1 VH with G56H
VL: not shown
notes: Fab from E. coli; CH1 (with His and Flag tags) and kappa CL come from the expression plasmids; also called APFF G56H
B15: Fab VH1-46_IGHD6-6*01_IGHJ1*01 S102A/S103P/S104F/H111F G56T & L6_IGKJ1*01 (Fab, V domains shown)
VH: B1 VH with G56T
VL: not shown
notes: Fab from E. coli; CH1 (with His and Flag tags) and kappa CL come from the expression plasmids; also called APFF G56T
B16: Fab VH1-46_IGHD6-6*01_IGHJ1*01 S102A/S103P/S104F/H111F N52K & L6_IGKJ1*01 (Fab, V domains shown)
VH: B1 VH with N52K
VL: not shown
notes: Fab from E. coli; CH1 (with His and Flag tags) and kappa CL come from the expression plasmids; also called APFF N52K
B17: Fab VH1-46_IGHD6-6*01_IGHJ1*01 S102A/S103P/S104F/H111F N52Y & L6_IGKJ1*01 (Fab, V domains shown)
VH: B1 VH with N52Y
VL: not shown
notes: Fab from E. coli; CH1 (with His and Flag tags) and kappa CL come from the expression plasmids; also called APFF N52Y
B18: Fab VH1-46_IGHD6-6*01_IGHJ1*01 S102A/S103P/S104F/H111F I51T/N52V & L6_IGKJ1*01 (Fab, V domains shown)
VH: B1 VH with I51T, N52V
VL: not shown
notes: Fab from E. coli; CH1 (with His and Flag tags) and kappa CL come from the expression plasmids; also called APFF I51T/N52V
B19: Fab VH1-46_IGHD6-6*01_IGHJ1*01 S102A/S103P/S104F/H111F S54I & L6_IGKJ1*01 (Fab, V domains shown)
VH: B1 VH with S54I
VL: not shown
notes: Fab from E. coli; CH1 (with His and Flag tags) and kappa CL come from the expression plasmids; also called APFF S54I
B20: Fab VH1-46_IGHD6-6*01_IGHJ1*01 S102A/S103P/S104F/H111F N52V & L6_IGKJ1*01 (Fab, V domains shown)
VH: B1 VH with N52V
VL: not shown
notes: Fab from E. coli; CH1 (with His and Flag tags) and kappa CL come from the expression plasmids; also called APFF N52V

The binders below were run against T1, Recombinant Human DLL4 (R&D Systems Cat#1506-D4/CF) (human, UniProt Q9NR61 27-524) (assay: ECL multispot (MSD) binding assay, DLL4 signal over blank spot; Fab concentration not given).
T1 construct: Bought recombinant protein; also called delta-like protein 4; rHuman DLL4

| Signal/Blank | Binder |
| --- | --- |
| 522 | B1 |
| 309 | B2 |
| 472 | B3 |
| 609 | B4 |
| 778 | B5 |
| 545 | B6 |
| 246 | B7 |
| 220 | B8 |
| 439 | B9 |
| 336 | B10 |
| 378 | B11 |
| 516 | B12 |
| 454 | B13 |

The binders below were run against T1, Recombinant Human DLL4 (R&D Systems …) (assay: ECL multispot (MSD) binding assay, DLL4 spotted on plate, purified Fab in solution; Fab concentration not given).

| ECL signal | Binder |
| --- | --- |
| 159000 | B1 |
| 106000 | B2 |
| 157000 | B3 |
| 209000 | B4 |
| 204000 | B5 |
| 165000 | B6 |
| 110000 | B7 |
| 72300 | B8 |
| 184000 | B9 |
| 108000 | B10 |
| 133000 | B11 |
| 184000 | B12 |
| 178000 | B13 |

Each binder was assayed against T2, Recombinant Human DLL4 (delta-like protein 4) (human, UniProt Q9NR61 27-524) (assay: ELISA on plate-coated DLL4, 100 nM Fab).
T2 construct: Bought recombinant protein (R&D Systems Cat#1506-D4/CF); also called rHuman DLL4

| ELISA signal | Binder |
| --- | --- |
| 0.65 | B14 |
| 0.2 | B15 |
| 0.45 | B16 |
| 0.01 | B17 |
| 1.23 | B18 |
| 0.03 | B19 |
| 0.24 | B20 |

Each binder was assayed against T2, Recombinant Human DLL4 (delta-like …) (assay: ECL 96-well plate assay on immobilised DLL4, 10 nM Fab).

| ECL signal | Binder |
| --- | --- |
| 68800 | B14 |
| 60700 | B15 |
| 67100 | B16 |
| 24500 | B17 |
| 71700 | B18 |
| 18400 | B19 |
| 64700 | B20 |

— patent US20120316071A1 (published 2012)
